Substitutions are numbered along the chain they refer to.

Holding throughout (experiment): EMSA; EMSA: 10 mM HEPES/NaOH pH 7.4, 150 mM NaCl, ~53 pmol DNA in 10 ul, RT 15 min; DNA:protein molar ratios 1:0.3 to 1:9; 6% PAGE, 0.5% TBE, ethidium bromide
Details in all cases: protein: recombinant; tags: Strep-tag (C-terminal); chain copies: 2; blunt
(In general: Mobility shift assays separate free from complexed probe on a gel.)

In one data set the target is T1, VosA1-190 K37A/K39A (Aspergillus nidulans, UniProt Q5BBX1 1-190, K37A;K39A).
T1 sequence: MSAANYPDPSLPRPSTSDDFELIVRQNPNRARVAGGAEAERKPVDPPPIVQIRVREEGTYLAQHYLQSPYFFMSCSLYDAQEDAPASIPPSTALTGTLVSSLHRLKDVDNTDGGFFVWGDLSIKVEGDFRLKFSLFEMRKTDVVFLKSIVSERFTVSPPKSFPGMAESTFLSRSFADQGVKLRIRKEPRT

A further data set concerns the target T2, VosA1-190 dead (Aspergillus nidulans, UniProt Q5BBX1 1-190, K37A;K39A;R41A;K42A).
T2 sequence: T1 sequence with R41A, K42A

Another data set concerns the target T3, VosA1-190 K160A (Aspergillus nidulans, UniProt Q5BBX1 1-190, K160A).
T3 sequence: T1 sequence with A37K, A39K, K160A

B1: brlA 35 bp probe (OHS301/302) (dsDNA)
DNA 1: ATTCGGCGACTAGGATCTTACTGGCCGCGGCCGAG
DNA 2: CTCGGCCGCGGCCAGTAAGATCCTAGTCGCCGAAT
For B1, the values for the binding result with VosA1-190 K37A/K39A, with VosA1-190 dead and in the data set with VosA1-190 K160A were “no binding”, “no binding” and “binds”, respectively.

The record behind these values is article PMC3876986, “The Velvet Family of Fungal Regulators Contains a DNA-Binding Domain Structurally Similar to NF-κB”.
